Positions count from the first letter of the chain named.
T1: wildtype OX2R (Homo sapiens, UniProt O43614)
T1 sequence (O43614 1-444): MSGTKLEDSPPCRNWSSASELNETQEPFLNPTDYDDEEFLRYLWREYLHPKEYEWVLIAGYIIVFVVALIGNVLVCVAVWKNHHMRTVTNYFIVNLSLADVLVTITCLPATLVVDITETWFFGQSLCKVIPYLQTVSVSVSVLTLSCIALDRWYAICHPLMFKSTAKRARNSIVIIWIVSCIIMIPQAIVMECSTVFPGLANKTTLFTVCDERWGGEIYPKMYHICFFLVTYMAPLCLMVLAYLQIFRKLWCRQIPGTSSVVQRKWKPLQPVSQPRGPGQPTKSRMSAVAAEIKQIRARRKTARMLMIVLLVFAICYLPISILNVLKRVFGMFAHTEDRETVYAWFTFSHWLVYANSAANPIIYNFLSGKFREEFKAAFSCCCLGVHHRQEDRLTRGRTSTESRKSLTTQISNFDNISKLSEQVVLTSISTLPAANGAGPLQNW

T2: Engineered human orexin receptor 2 (OX2R) truncated after R389, ICL3 residues V261-A291 deleted, with an … (human, UniProt O43614 1-389, residues V261–A291 deleted, biotin on the Avi-tag (BirA biotin-protein ligase))
T2 construct: Orexin receptor type 2 (OX2R), human, truncated after residue R389, part of ICL3 (residues V261-A291) deleted; M1 is said to be present in the construct; Detergent-solubilised receptor (DDM/CHS); The PDB entries hold the construct without the Avi-tag; also called engineered OX2R; orexin receptor type 2; source: biotinylated with BirA; not shown: Avi-tag, N-terminal, kept
T2 sequence (looked up): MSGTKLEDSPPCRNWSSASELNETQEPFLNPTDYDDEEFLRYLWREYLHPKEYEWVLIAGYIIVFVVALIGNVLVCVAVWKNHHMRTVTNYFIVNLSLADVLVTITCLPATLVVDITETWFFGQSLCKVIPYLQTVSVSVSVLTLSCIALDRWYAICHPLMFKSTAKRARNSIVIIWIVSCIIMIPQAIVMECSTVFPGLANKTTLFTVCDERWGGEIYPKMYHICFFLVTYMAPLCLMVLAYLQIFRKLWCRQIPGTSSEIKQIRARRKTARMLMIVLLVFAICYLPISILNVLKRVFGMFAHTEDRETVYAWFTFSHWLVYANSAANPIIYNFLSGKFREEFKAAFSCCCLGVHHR

B1: 41 (VHH)
VHH: QVQLVESGGGLVQAGGSLRLSCAASGFPVNSYVMYWYRQAPGKEREWVAAIGSTGEYTAYADSVKGRFTISRDNAKNTVYLQMNSLKPEDTAVYYCEVFVGYFYYGQGTQVTVS
B2: 54 (VHH)
VHH: B1 VHH with N30Q, S31H, G52D, T54S, E56A, Y57H, A59V, F99Y, Y102W, Y105H
B3: 47 (VHH)
VHH: B1 VHH with N30D, Y32K, V33T, G52A, T54A, E56H, Y57L, F99H, Y102W, Y105H
B4: 53 (VHH)
VHH: B1 VHH with S31T, Y32R, V33S, G52A, E56W, Y57S, F99Y, Y105H
B5: 42 (VHH)
VHH: B1 VHH with S31T, Y32R, V33S, G52A, E56W, Y57S, F99E, F103W
B6: 43 (VHH)
VHH: QVQLVESGGGLVQAGGSLRLSCAASGFPVSYIGMEWYRQAPGKEREWVAAITGFGHWTAYADSVKGRFTISRDNAKNTVYLQMNSLKPEDTAVYYCEVQVGAKYYGQGTQVTVS
B7: 52 (VHH)
VHH: QVQLVESGGGLVQAGGSLRLSCAASGFPVKWKSMAWYRQAPGKEREWVAAISSYGWHTEYADSVKGRFTISRDNAKNTVYLQMNSLKPEDTAVYYCTVNVGKGYEGQGTQVTVS
B8: 40 (VHH)
VHH: QLQLVESGGGLVQAGGSLRLSCAASGFPVRSYTMYWYSQAPGKEREWVAAINSQGNTTAYADSVKGRFTISRDNAKNTVYLQMNSLKPEDTAVYYCEVYVGYWYHGQGTQVTVS
B9: 57 (VHH)
VHH: B8 VHH with L2V, R30S, S31Q, Y32K, S38R, N52A, Q54E, N56Q, T57K, W103F
B10: 49 (VHH)
VHH: B8 VHH with L2V, R30Y, S31N, Y32N, S38R, N52S, Q54G, N56S, T57N, W103F
B11: 48 (VHH)
VHH: B1 VHH with N30A, S31M, Y32N, V33T, G52T, T54S, Y57H, F99Y, Y105H
B12: 50 (VHH)
VHH: B1 VHH with N30W, S31H, Y32D, V33T, E56N, Y57L, F99Y, Y105H
B13: synthetic nanobody Sb51 (VHH)
VHH: QVQLVESGGGLVQAGGSLRLSCAASGFPVGRVMYWYRQAPGKEREWVAAISSHGDMTAYADSVKGRFTISRDNAKNTVYLQMNSLKPEDTAVYYCEVYVGYFYHGQGTQVTVS
notes: in the coordinates deposited here (complex with compound 1); Supplementary Data 1 lists the hits from which Sb51 was chosen; source: E. coli C41(DE3) periplasm, MBP fusion, purified (NiNTA, TEV cleavage, NiNTA, cation exchange); not shown: His10, N-terminal, cleaved
B14: Synthetic nanobody clone 56 (VHH)
VHH: QVQLVESGGGLVQAGGSLRLSCAASGFPVVSYNMKWYRQAPGKEREWVAAIYSFGSLGSWTHYADSVKGRFTISRDNAKNTVYLQMNSLKPEDTAVYYCHVYVGATYYGQGTQVTVS
notes: synthetic nanobody selected from the libraries of Zimmermann and coworkers by ribosome display and phage display; Host, tags and purification are told only for Sb51 (clone 51); also called Clone No. 56
B15: Synthetic nanobody clone 13 (VHH)
VHH: QVQLVESGGGLVQAGGSLRLSCAASGFPVNAREMYWYRQAPGKEREWVAAIVSKGSHTEYADSVKGRFTISRDNAKNTVYLQMNSLKPEDTAVYYCNVKDFGWWAVYYDYWGQGTQVTVS
notes: synthetic nanobody selected from the libraries of Zimmermann and coworkers by ribosome display and phage display; Host, tags and purification are told only for Sb51 (clone 51); also called Clone No. 13
B16: Synthetic nanobody clone 15 (VHH)
VHH: B15 VHH with N30K, A31Q, Y35A, V52W, S56A, E59V, A105N, V106R, Y107Q
notes: synthetic nanobody selected from the libraries of Zimmermann and coworkers by ribosome display and phage display; Host, tags and purification are told only for Sb51 (clone 51); also called Clone No. 15
B17: Synthetic nanobody clone 7 (VHH)
VHH: B15 VHH with N30L, A31R, R32Q, Y35F, V52W, H57T, F101Y, A105N, V106N, Y107W
notes: synthetic nanobody selected from the libraries of Zimmermann and coworkers by ribosome display and phage display; Host, tags and purification are told only for Sb51 (clone 51: E. coli C41(DE3), MBP fusion cleaved by TEV); also called Clone No. 7
B18: Synthetic nanobody clone 45 (VHH)
VHH: B8 VHH with L2V, R30Y, S31T, S38R, N52T, Q54E, N56I, T57S, W103F
notes: synthetic nanobody selected from the libraries of Zimmermann and coworkers by ribosome display and phage display; Host, tags and purification are told only for Sb51 (clone 51); also called Clone No. 45
B19: Synthetic nanobody clone 46 (VHH)
VHH: B1 VHH with N30D, S31A, G52A, T54Q, E56H, Y57P, F99Y, Y105H, Q110R
notes: synthetic nanobody selected from the libraries of Zimmermann and coworkers by ribosome display and phage display; Host, tags and purification are told only for Sb51 (clone 51); also called Clone No. 46
B20: Synthetic nanobody clone 44 (VHH)
VHH: B8 VHH with L2V, R30D, S31T, S38R, Q54N, N56H, T57H, Y102W, H105Y
notes: synthetic nanobody selected from the libraries of Zimmermann and coworkers by ribosome display and phage display; Host, tags and purification are told only for Sb51 (clone 51); also called Clone No. 44
B21: Synthetic nanobody clone 55 (VHH)
VHH: B8 VHH with L2V, R30Q, Y32H, S38R, Q54T, N56Q, T57G, W103F
notes: synthetic nanobody selected from the libraries of Zimmermann and coworkers by ribosome display and phage display; Host, tags and purification are told only for Sb51 (clone 51); also called Clone No. 55

target: T3, engineered OX2R carrying an additional amino-terminal Avi-tag, biotinylated (Homo sapiens, UniProt O43614, residues V261–A291 deleted, biotin on the Avi-tag (BirA biotin-protein ligase)); test: not given; conditions: not given

| Molecule | binding result |
| --- | --- |
| B1 | binds |
| B2 | binds |
| B3 | binds |
| B4 | binds |
| B5 | binds |
| B6 | binds |
| B7 | binds |
| B8 | binds |
| B9 | binds |
| B10 | binds |
| B11 | binds |
| B12 | binds |

target: T1, wildtype OX2R; test: Saturation binding of 125I-OxA to wildtype OX2R; conditions: CHO cell membranes, wild-type OX2R, room temperature, 6 h, pH 7.4; mean ± s.e.m., n = 3

| Molecule | Dissociation constant, pKD |
| --- | --- |
| 125I-OxA: radioligand, 125I-labelled OxA (PerkinElmer) (QPLPDCCRQKTCSCRLYELLHGAGNHAAGILTL) | 9.12 ± 0.05 |

target: T3, engineered OX2R carrying an additional …; test: grating-coupled interferometry; WAVE system (Creoptix); agonist-bound OX2R immobilised via the biotinylated Avi-tag on a neutravidin-coated WAVEchip 4PCP; conditions: both partners purified

| Molecule | Kd [nM] |
| --- | --- |
| B13 | ~0.6 |

target: T2, Engineered human orexin receptor 2 …; test: grating-coupled interferometry; WAVE system (Creoptix); agonist-bound OX2R immobilised via the biotinylated Avi-tag on a neutravidin-coated WAVEchip 4PCP; nanobody as analyte; conditions: both partners purified

| Molecule | Kd [nM] |
| --- | --- |
| B14 | 0.5 |
| B15 | 12 |
| B16 | 300 |
| B17 | 11 |
| B18 | 11 |
| B19 | 4.2 |
| B20 | 7.7 |
| B21 | 7.3 |
